Results from article doi:10.1101/2023.06.10.544460 (bioRxiv, 2023).
Where “and” joins values, the source holds several entries; their conditions need not be identical. Equal entries are not always repeated.

Molecular target: the molecule itself
Experiment: cryo-EM structure

B1: HMPV nucleoprotein N, full length, strain NL1-00 (A1), RNA-bound oligomers (N-RNA) (natural protein, UniProt Q91F57 1-394, looked up)
chain: MSLQGIHLSDLSYKHAILKESQYTIKRDVGTTTAVTPSSLQQEITLLCGEILYAKHADYKYAAEIGIQYISTALGSERVQQILRNSGSEVQVVLTRTYSLGKIKNNKGEDLQMLDIHGVEKSWVEEIDKEARKTMATLLKESSGNIPQNQRPSAPDTPIILLCVGALIFTKLASTIEVGLETTVRRANRVLSDALKRYPRMDIPKIARSFYDLFEQKVYHRSLFIEYGKALGSSSTGSKAESLFVNIFMQAYGAGQTMLRWGVIARSSNNIMLGHVSVQAELKQVTEVYDLVREMGPESGLLHLRQSPKAGLLSLANCPNFASVVLGNASGLGIIGMYRGRVPNTELFSAAESYAKSLKESNKINFSSLGLTDEEKEAAEHFLNVSDDSQNDYE
  stoichiometry N: 10 protomers and 11 protomers and 12 protomers and ≥ 12 protomers
